The source of these data is patent publication US20110190477A1 (G2 INFLAMMATION, published 2011).

What is called EC50 is the concentration at which the effect is half-maximal. A word on the Kd: it is the constant that tells how readily two partners part at equilibrium. Read a high Kd as weaker binding.

Test [1] deals with T1, peptide PEP1 (residues 9-29 of human C5aR) (human).
T1 construct: Coated directly on a MaxiSorp plate; also called N-terminal 9-29 peptide
T1 peptide: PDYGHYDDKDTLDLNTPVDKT
Nature of the test: ELISA, PEP1 coated at 10, 2 and 1 µg/ml. The method, then: A 384-well MaxiSorp plate (Nunc) was coated with a peptide corresponding to residues 9-29 of human C5aR (PEP1), at concentrations of 1-15 μg/ml in PBS/0.01% Tween-20 at 37° C. for 1.5 hours, then washed 3 times. The plate was blocked with 20 μl of blocking buffer (1% w/v BSA in PBS) per well for overnight at 4° C. The plate was washed 3 times with PBS/Tween buffer (0.05% v/v Tween-20 in PBS). 20 μl antibody (final concentration 5 μg/ml) was added to each well and the plate was incubated for 2 hours at 37° C. The plate was washed 3 times as above then 20 μl HRP-conjugated anti-human IgG kappa (1:8000 dilution in PBS/Tween 20) or HRP-conjugated anti-mouse IgG (1:7500 dilution) was added to each well. After a 2 hour incubation at room temperature the plate was washed 4 times (as above). The presence of peroxidase was detected by adding 20 μl of freshly prepared TMB Substrate reagent (BD Opt EIA) to each well and incubating at room temperature for 20 min. Finally after stopping the reaction with 20 μl 1M H₂SO₄ per well the plate was read at 450 nm (reference 620 nm) in a plate reader.
However, the anti-C5aR (CD88) mAb S5/1 (AbD Serotec, Cat No. MCA1283) which was raised against the human C5aR N-terminal peptide 1-31 did bind PEP1 at 5 μg/ml as expected.
For orientation: In an ELISA, binding on a coated surface is turned into a signal by an enzyme label.

Test [2] has as its target T2, peptide A8 (… with Ala at position 6, F4 of the epitope) (human).
T2 construct: The label A8 and position 6 follow from 'Peptides A2-A13 contained a single alanine substitution at each amino acid position from 12 to 1 respectively'
T2 peptide: Biotin-SGSGVREEYAPPKVLC
The experiment in a line: peptide ELISA, alanine-scan peptides. The method, then: (§1) A 384 well streptavidin-coated plate (Nunc) was blocked with 20 μl of blocking buffer (1% w/v BSA in PBS) per well. The plate was washed 4 times with PBS/Tween20 buffer (0.1% v/v Tween 20 in PBS). 20 μl of diluted peptide solution was transferred into a well and the plate incubated for 1 hour at room temperature. After washing the plate 4 times (as above) 20 μl antibody (0.5, 1, 1.25, 2.5 or 5 μg/ml) was added to the well and the plate was incubated for 1 hour at 20° C. The plate was washed 4 times as above then 20 μlHRP-conjugated anti-mouse IgG (1:5000 dilution in PBS/Tween 20) was added to each well. After a 1 hour incubation at room temperature the plate was washed 3 times (as above) then twice with PBS to remove traces of Tween. The presence of peroxidase was detected by adding 20 μl of freshly prepared TMB Substrate reagent (BD Opt EIA) to each well and incubating at room temperature for 20 min. Finally the plate was read at 650 nm/450 nm.
(§2) Peptide A1 had no A1a substitution and peptide A14 was a scrambled version of peptide A1. Peptides A2-A13 contained a single alanine substitution at each amino acid position from 12 to 1 respectively. Binding of antibodies to the peptides coated on ELISA plates was carried out as described above.

In test [3] the target is T3, peptide A9 (… with Ala at position 5, Y3 of the epitope) (human).
T3 construct: The label A9 and position 5 follow from 'Peptides A2-A13 contained a single alanine substitution at each amino acid position from 12 to 1 respectively'
T3 peptide: Biotin-SGSGVREEAFPPKVLC
Nature of the test: peptide ELISA, alanine-scan peptides. The method, then: as §1, §2

The next test deals with T4, human C5a receptor (human, UniProt P21730 1-350).
T4 construct: On human neutrophils, L1.2/hC5aR transfectants or neutrophils of hC5aR knock-in mice; also called hC5aR; C5aR1
T4 chain: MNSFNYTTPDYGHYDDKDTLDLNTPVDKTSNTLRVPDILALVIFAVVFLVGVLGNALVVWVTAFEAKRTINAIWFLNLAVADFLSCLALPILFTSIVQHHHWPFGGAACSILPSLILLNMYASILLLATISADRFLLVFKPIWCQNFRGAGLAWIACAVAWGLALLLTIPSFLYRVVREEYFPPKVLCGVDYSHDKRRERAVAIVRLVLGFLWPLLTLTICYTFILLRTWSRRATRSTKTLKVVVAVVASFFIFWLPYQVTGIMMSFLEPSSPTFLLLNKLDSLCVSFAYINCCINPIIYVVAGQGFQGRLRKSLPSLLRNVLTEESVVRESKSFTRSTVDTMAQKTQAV
Nature of the test: saturation binding to human neutrophils at 4 C, flow cytometry. The method, then: Human neutrophils, isolated as described above, were resuspended in dPBS and 1×10⁵ cells (in 25 μl) were dispensed into wells of a 96-well plate. An equal volume (25 μl) of 2× antibody (diluted in PBS) was added to each well. The final antibody concentration using 2-fold serial dilution ranged from 40 to 0 ug/ml (using unlabelled hAb-Q, hAb-J and 7F3). Cells and antibody were incubated for 20 min times at 4° C. After incubation, 100 μl PBS+1% BCS was added to each well and the plate centrifuged at 2,000 rpm for 3 min. […] The cells were washed once as above and resuspended in PBS+1% FCS for analysis by flow cytometry. FSC v SSC scatter was used to identify neutrophils, with the Median Fluorescence Intensity (MFI) determined for each sample. EC50 values were determined by fitting data (MFI—background vs log₁₀[antibody concentration]) to the sigmoidal dose-response (variable slope) i.e. 4-parameter logistic equation using GraphPad Prism (v4.0) software. Bₘₐₓ and KD were determined by fitting data to the one-site binding hyperbola equation.
A general note: In flow cytometry, cells or beads pass a laser one at a time.

“And” between values parts separate entries of the source, which are not always exact repeats. Identical values can stand only once. No end group written: not given here. *: point of attachment. Biotin = O=C1N[C@H]2[C@H](CS[C@H]2CCCCC(=O)*)N1

B1: humanized anti-C5aR antibody hAb-J (antibody, human IgG4 S228P, kappa)
light: DVVMTQSPLSLPVTLGEPASISCRSSQSLVHSNGNTYLHWYLQKPGQSPQLLIYKVSNRFSGVPDRFSGSGSGTDFTLKISRVEAEDVGVYFCSQSTLVPLTFGQGTKLEIKTVAAPSVFIFPPSDEQLKSGTASVVCLLNNFYPREAKVQWKVDNALQSGNSQESVTEQDSKDSTYSLSSTLTLSKADYEKHKVYACEVTHQGLSSPVTKSFNRGEC
heavy: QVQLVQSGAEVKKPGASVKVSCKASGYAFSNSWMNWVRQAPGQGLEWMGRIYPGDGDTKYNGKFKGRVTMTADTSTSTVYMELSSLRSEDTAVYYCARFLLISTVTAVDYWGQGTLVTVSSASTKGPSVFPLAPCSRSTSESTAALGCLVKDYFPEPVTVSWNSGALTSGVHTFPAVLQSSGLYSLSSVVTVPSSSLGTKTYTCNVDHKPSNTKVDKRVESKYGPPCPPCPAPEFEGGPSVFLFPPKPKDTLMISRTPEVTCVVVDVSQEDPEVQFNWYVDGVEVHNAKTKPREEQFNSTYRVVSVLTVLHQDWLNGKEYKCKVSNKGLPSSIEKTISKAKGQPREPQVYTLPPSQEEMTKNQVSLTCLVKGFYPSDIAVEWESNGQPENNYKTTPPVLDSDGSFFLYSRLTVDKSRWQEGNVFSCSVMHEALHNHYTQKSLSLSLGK
notes: also called antibody J
For B1, the figures for the binding result in test [1], in test [2] and in test [3] were “no binding (tested: 5 µg/ml)”, “no binding” and “no binding”, respectively.

B2: humanized anti-C5aR antibody hAb-Q (antibody, human IgG4 S228P, kappa)
light: DVVMTQSPLSLPVTLGEPASISCRSSQSLVHSNGNTYLHWYLQKPGQSPQLLIYKVSNRFSGVPDRFSGSGSGTDFTLKISRVEAEDVGVYFCSQSTLVPLTFGQGTKLEIKRTVAAPSVFIFPPSDEQLKSGTASVVCLLNNFYPREAKVQWKVDNALQSGNSQESVTEQDSKDSTYSLSSTLTLSKADYEKHKVYACEVTHQGLSSPVTKSFNRGEC
heavy: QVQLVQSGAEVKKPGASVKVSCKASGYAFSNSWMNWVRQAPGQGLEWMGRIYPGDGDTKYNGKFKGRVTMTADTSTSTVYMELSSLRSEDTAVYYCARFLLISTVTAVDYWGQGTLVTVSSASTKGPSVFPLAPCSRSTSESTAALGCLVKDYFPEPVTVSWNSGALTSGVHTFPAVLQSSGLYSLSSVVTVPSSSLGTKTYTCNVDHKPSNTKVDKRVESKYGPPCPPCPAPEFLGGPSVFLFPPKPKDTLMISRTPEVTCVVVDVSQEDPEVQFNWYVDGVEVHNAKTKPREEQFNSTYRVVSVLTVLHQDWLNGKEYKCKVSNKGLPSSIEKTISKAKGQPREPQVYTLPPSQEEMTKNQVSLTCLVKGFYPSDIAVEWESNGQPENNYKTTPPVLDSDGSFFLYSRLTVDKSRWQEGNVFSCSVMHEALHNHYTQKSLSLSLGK
notes: IgG4 with the Ser228Pro mutation; also called antibody Q; anti-C5aR ab
With B2, in the test with human C5a receptor, the 50% effective concentration (EC50) was 20 nM to 25 nM (2×) and ~3 µg/mL. Besides, the Kd with human C5a receptor was 20 nM to 25 nM (2×) and ~3 µg/mL. For the same molecule, the results for the binding result in test [1], in test [2] and in test [3] were “no binding (tested: 5 µg/ml)”, “no binding” and “no binding”, respectively.

B3: mouse anti-C5aR monoclonal antibody 7F3 (antibody, V domains shown)
VH: QVQLQQSGPELVKPGASVKISCKASGYAFSNSWMNWVKQRPGKGLEWIGRIYPGDGDTKYNGKFKGKATLTADKSSSTAYMQLSSLTSEDSAVYFCARFLLISTVTAVDYWGQGTTLTVSS
VL: DVVMTQSPLSLPVSLGNQASISCRSSQSLVHSNGNTYLHWYLQKPGQSPKLLIYKVSNRFSGVPDRFSGSGSGTDFSLKISRVEAEDLGVYFCSQSTLVPLTFGAGTKLELK
notes: Mouse monoclonal from hybridoma ECACC 00110609; also called m7F3; mouse 7F3
In the case of B3, in the test with human C5a receptor, the EC50 was in the range of 8 to 10 nM and the equilibrium dissociation constant (Kd) lay within 8 to 10 nM.
